# Measured values: patent US10233249B2, “Antibodies and methods for treating estrogen receptor-associated diseases” (BEIJING SHENOGEN PHARMA GROUP LTD., priority 2013, dated 2019)
# “Also recorded” adds a separate entry of the source.
# T1: ER-α36 expressed on cell surfaces of K562 cells (Homo sapiens, UniProt P03372)
# T1 construct: endogenous in cells; host or cells: K562, MCF7, SKBR3, MHCC97H
# T1 sequence (P03372 1-310 isoform P03372-4): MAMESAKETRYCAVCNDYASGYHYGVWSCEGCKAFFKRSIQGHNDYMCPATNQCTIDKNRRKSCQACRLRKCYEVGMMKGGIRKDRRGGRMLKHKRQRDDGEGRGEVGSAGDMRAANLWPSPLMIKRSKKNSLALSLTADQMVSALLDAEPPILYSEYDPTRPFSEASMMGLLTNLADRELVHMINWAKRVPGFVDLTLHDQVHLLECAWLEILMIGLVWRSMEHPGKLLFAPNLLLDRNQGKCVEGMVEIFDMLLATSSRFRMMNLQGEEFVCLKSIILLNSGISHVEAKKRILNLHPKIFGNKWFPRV
# T2: ER-α36 expressed on cell surfaces of MHCC97H cells (Homo sapiens, UniProt P03372)
# T2 construct: endogenous in cells; host or cells: K562, MCF7, SKBR3, MHCC97H
# T2 sequence (P03372 1-310 isoform P03372-4): T1 sequence (P03372 1-310 isoform P03372-4)
# T3: ER-α36 expressed on cell surfaces of SKBR3 cells (Homo sapiens, UniProt P03372)
# T3 construct: endogenous in cells; host or cells: K562, MCF7, SKBR3, MHCC97H
# T3 sequence (P03372 1-310 isoform P03372-4): T1 sequence (P03372 1-310 isoform P03372-4)
# T4: ER-α36 expressed on cell surfaces of MCF7 cells (Homo sapiens, UniProt P03372)
# T4 construct: endogenous in cells; host or cells: K562, MCF7, SKBR3, MHCC97H
# T4 sequence (P03372 1-310 isoform P03372-4): T1 sequence (P03372 1-310 isoform P03372-4)
# T5: ER-α36 (Homo sapiens, UniProt P03372)
# T5 sequence (P03372 284-310 isoform P03372-4): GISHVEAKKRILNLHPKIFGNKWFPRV
# B1: SNGmB1: mouse monoclonal anti-ER-α36 antibody (mIgG2b), light chain SEQ ID NO: 16, heavy chain SEQ ID NO: 18 (antibody, listed as Mus musculus)
# heavy: QAYLQQSGAELVRPGASVKMSCKASGYTFTSHNMHWIKQTPRQGLEWIGAIHPVNGDTAYNQKFKGKATLTVDKSSSTAYLQLSSLTSEESAVYFCAREGYGSVDYWGQGTTLTVSSAKTTPPSVYPLAPGCGDTTGSSVTLGCLVKGYFPESVTVTWNSGSLSSSVHTFPALLQSGLYTMSSSVTVPSSTWPSQTVTCSVAHPASSTTVDKKLEPSGPISTINPCPPCKECHKCPAPNLEGGPSVFIFPPNIKDVLMISLTPKVTCVVVDVSEDDPDVQISWFVNNVEVHTAQTQTHREDYNSTIRVVSTLPIQHQDWMSGKEFKCKVNNKDLPSPIERTISKIKGLVRAPQVYILPPPAEQLSRKDVSLTCLVVGFNPGDISVEWTSNGHTEENYKDTAPVLDSDGSYFIYSKLNMKTSKWEKTDSFSCNVRHEGLKNYYLKKTISRSPGK
# light: ETTVTQSPASLSMTIGEKVTIRCITSTDIDDDMNWYRKKPGQPPKLLISEGNTLRPGVPSRFSSSGYGTDFVFTIENMLSEDVADYYCLQSDNLPLTFGAGTKLELKRADAAPTVSIFPPSSEQLTSGGASVVCFLNNFYPKDINVKWKIDGSERQNGVLNSWTDQDSKDSTYSMSSTLTLTKDEYERHNSYTCEATHKTSTSPIVKSFNRNEC
# Assays:
# [1] = system: MCF7 mammosphere formation; experiment: Estradiol stimulated MCF7 mammosphere formation assay; assay type: cell-based, human
# Description: The impact of antibody on the formation and growth of cells was evaluated by Estradiol stimulated MCF7 mammosphere formation assay.
# MCF-7 (ATCC) maintained in DMEM medium containing 10% FBS (Gibco) have been passaged 2-3 times prior to assay and are 60% confluence. MCF-7 cells were washed with warm phenol red-free DMEM twice and then grew in phenol red-free DMEM with 2.5% charcoal stripped FBS (CFBS) for 48 hours. The cells were then trypsinized and passed through 40-μm filters to remove cell clumps, followed by stained with 7-AAD and 800 cells were plated into each well of ultra-low binding 24 well plates (Corning Inc.) in 800 μl mammosphere growth medium consisting of serum free DMEM-F12 (Gibco) supplemented with 5 μg/ml insulin, 0.4% bovine serum albumin (Sigma), B27 (Invitrogen), 20 ng/ml EGF and bFGF (BDBiosciences). For the evaluation of antibody activity, 1 nM estradiol in DMSO was added to each well to induce mammosphere formation after adding of antibodies.
# MCF7 cells were grown in the presence of 1 nM estradiol and PBS, human IgG, mouse IgG2b, recombinant ER-α36 ligand binding domain Fc fusion protein, or SNGmB1. DMSO was used as negative control. After 72 hr treatment, the number of mammosphere in culture was counted. […]
# The antibody activity was also evaluated in a longer term of 7 days by following methods: MCF7 mammosphere was prepared using same method described above. […]
# [2] = system: BCAP37 breast cancer xenograft; experiment: BCAP37 breast cancer xenograft model; assay type: in vivo; details: NOD-SCID mice, 1.25, 5 and 20 mg/kg SNGmB1, 3 mg/kg Herceptin, 17 days
# Description: The ability of anti-ER-α36 antibody in inhibiting human tumor cell growth in Xenograft model was assessed using BCAP37 breast cancer model. […] The cells were implanted into NOD-SCID mice. […] After 17 days of treatment, the tumors were excised, and both tumor weight and volume were measured.
# [3] = target: T1, ER-α36 expressed on cell surfaces of K562 cells; experiment: FACS analysis of binding to cell surface ER-α36; details: 100, 20, 4, 0.8, 0.16, 0.032 μg/ml; mouse IgG2b isotype control
# Description: (§1) Also examined were the binding of SNGmB1 to a series of human cancer cell lines including K-562 cell, a cell line derived from chronic myeloid leukemia patient; MCF7: a breast cancer cell line expressing both ER-α66 and ER-α36; SKBR3 (ATCC): a breast cancer cell line expressing high levels of HER2; and MHCC97H (ATCC): a highly metastatic hepatocellular carcinoma cell line.
# (§2) These cell lines (K562, MCF7, SKBR3, MHCC97H) were cultured in their respective medium to 90% confluence and then the cells were washed with PBS, followed by pretreatment with 0.5 mM EDTA (adherent cell lines) to facilitate removal from substrate. The cells are then collected and centrifuged at 2500 rpm for 5 minutes at 4° C. After counting the cell number, the cells were then resuspended in the block buffer (10% normal goat serum, Invitrogen) to a final concentration of 5-10×10^6 cells/ml, and 100 μl of cells (5×10^5) were transferred to a 1.5 ml EP tube for staining. All those tubes (cells in block buffer) were then laid in a revolver (Grant) for 30 minutes at 4° C. After that the cells were centrifuged at 2500 rpm for 5 minutes at 4° C., the supernatant was discarded, 100 μl of the primary antibody was then added to (1-30 μg/ml final concentration, SNGmB1 or mouse IgG2b isotope control) and incubated in a revolver at 4° C. for 1 hr. The cells were then collected by centrifugation at 2500 rpm for 5 minutes at 4° C. and washed 2 times with PBS solution. The goat anti mouse IgG (H+L) FITC secondary antibody (Invitrogen) were then added at a dilution range of 1:400-800 followed by incubation in a revolver at 4° C. for 1 hr and kept in dark. Following this incubation, free antibody was the removed by washing the cells twice with PBS and the cells were then fixed in 1% paraformaldehyde at room temperature for 10 min and before resuspending the cells in 200-400 μl PBS with 5 μl 7-AAD (BD Biosciences) added for final flow cytometric analysis.
# (§3) In FIG. 5A, the “Geom. Mean” refers to Geometric mean fluorescence intensity. […] The cell line was incubated with the SNGmB1 antibody and the binding was tested, according to the similar procedure described above. Mouse IgG2b was used as isotype control.
# [4] = target: T2, ER-α36 expressed on cell surfaces of MHCC97H cells; experiment: FACS analysis of binding to cell surface ER-α36; details: mouse IgG2b isotype control
# Description: as §1, §2, §3
# [5] = target: T3, ER-α36 expressed on cell surfaces of SKBR3 cells; experiment: FACS analysis of binding to cell surface ER-α36; details: mouse IgG2b isotype control
# Description: as §1, §2, §3
# [6] = target: T4, ER-α36 expressed on cell surfaces of MCF7 cells; experiment: FACS analysis of binding to cell surface ER-α36; details: mouse IgG2b isotype control
# Description: as §1, §2, §3
# ER-α36 = target: T5, ER-α36; experiment: Biacore binding affinity of chimeric and humanized antibodies (Example 9)
# Description: The humanized antibodies were purified and characterized using ELISA and Biacore for binding analysis.
# The humanized antibodies were tested for their binding affinity to ER-α36.
molecule,measurement,setting,value
B1,inhibition of estradiol stimulated MCF7 mammosphere formation,"[1]; 1 nM estradiol, 72 hr treatment, compared with human IgG and mouse IgG2b",significantly inhibited; also recorded: can inhibit on MCF7 mammosphere formation and growth
same,"inhibition of MCF7 mammosphere formation, longer term","[1]; 7 days, estradiol 100 μM or 3 nM, different antibody concentrations, compared with mIgG",better ability in inhibiting mammosphere formation compared with mIgG; also recorded: can inhibit on MCF7 mammosphere formation and growth at different concentrations
same,inhibition of tumor growth,[2],inhibit tumor growth in a dose-dependent manner; also recorded: inhibited tumor cell growth in a does-dependent manner
same,binding to K562 cells (FACS),[3],dose-dependent binding
same,binding to MHCC97H cells (FACS),[4],specific binding
same,binding to SKBR3 cells (FACS),[5],specific binding
same,binding to MCF7 cells (FACS),[6],specific binding
same,Ka,ER-α36; listed as SNGmB1-20110709(IgG2b),2.12e+06 M⁻¹ s⁻¹
same,Ka,ER-α36; listed as SNGmB1-20111117(IgG2b),1.76e+06 M⁻¹ s⁻¹
